biological target: CD3 (Homo sapiens (Human), UniProt P07766 23-207; P04234 22-171; P09693 23-182); test: cell-based or functional assay
Sequence (P07766 23-207 limits assumed, chain 1 of 3): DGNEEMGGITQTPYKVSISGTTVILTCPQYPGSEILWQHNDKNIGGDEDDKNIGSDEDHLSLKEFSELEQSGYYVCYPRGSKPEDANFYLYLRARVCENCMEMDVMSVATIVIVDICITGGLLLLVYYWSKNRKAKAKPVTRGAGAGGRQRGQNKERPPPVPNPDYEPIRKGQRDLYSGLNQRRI
Sequence (P04234 22-171 limits assumed, chain 2 of 3): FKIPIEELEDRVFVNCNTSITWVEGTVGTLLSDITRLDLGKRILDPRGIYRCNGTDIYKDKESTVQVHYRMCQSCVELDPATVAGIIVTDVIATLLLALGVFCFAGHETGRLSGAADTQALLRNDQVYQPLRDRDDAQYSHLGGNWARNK
Sequence (P09693 23-182 limits assumed, chain 3 of 3): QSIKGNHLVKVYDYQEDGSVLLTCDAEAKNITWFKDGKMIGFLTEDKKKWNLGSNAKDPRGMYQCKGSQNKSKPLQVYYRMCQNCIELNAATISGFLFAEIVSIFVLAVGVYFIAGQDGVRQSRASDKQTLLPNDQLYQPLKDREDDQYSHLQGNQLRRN

Row | Function % 0.025 ug/ml (T cell activation, CD69 on Jurkat cells with Raji cells, against the unmutated baseline) [%] | Function % 2 ug/ml (T cell activation, CD69 on Jurkat cells with Raji cells, against the unmutated baseline) [%] | Binder
1 | 13 | 52 | CD20/CD3 BsMab with common VL (SEQ ID NO: 3) P95T (bispecific antibody, V domains shown) VH 1: QVQLQQPGAELVKPGASVKMSCKASGYTFTSYNMHWVKQTPGRGLEWIGAIYPGNGDTSYNQKFKGKATLTADKSSSTAYMQLSSLRSEDSAVYYCARSTYYGGDWYFNVWGAGTTVTVSA VH 2: EVQLQESGAELARPGASVKMSCKASGYTFTSYTMHWVKQRPGEGLEWIGYINPSSGYTKYNQKFKDKATLTADKSSSTAYMELSSLTSEDSAVYYCARWQDYDVYFDYWGEGTTLTVSS VL: QIVLSQSPAILSASPGEKVTMTCRASSSVSYIHWFQQKPGSSPKPWIYATSNLASGVPVRFSGSGSGTSYSLTISRVEAEDAATYYCQQWTSNPTTFGGGTKLEIKR
2 | 11 | 17 | CD20/CD3 BsMab with common VL (SEQ ID NO: 3) P95Q (bispecific antibody, V domains shown) VH 1: QVQLQQPGAELVKPGASVKMSCKASGYTFTSYNMHWVKQTPGRGLEWIGAIYPGNGDTSYNQKFKGKATLTADKSSSTAYMQLSSLRSEDSAVYYCARSTYYGGDWYFNVWGAGTTVTVSA VH 2: EVQLQESGAELARPGASVKMSCKASGYTFTSYTMHWVKQRPGEGLEWIGYINPSSGYTKYNQKFKDKATLTADKSSSTAYMELSSLTSEDSAVYYCARWQDYDVYFDYWGEGTTLTVSS VL: QIVLSQSPAILSASPGEKVTMTCRASSSVSYIHWFQQKPGSSPKPWIYATSNLASGVPVRFSGSGSGTSYSLTISRVEAEDAATYYCQQWTSNPQTFGGGTKLEIKR
3 | 14 | 87 | CD20/CD3 BsMab with common VL (SEQ ID NO: 3) H33W (bispecific antibody, V domains shown) VH 1: QVQLQQPGAELVKPGASVKMSCKASGYTFTSYNMHWVKQTPGRGLEWIGAIYPGNGDTSYNQKFKGKATLTADKSSSTAYMQLSSLRSEDSAVYYCARSTYYGGDWYFNVWGAGTTVTVSA VH 2: EVQLQESGAELARPGASVKMSCKASGYTFTSYTMHWVKQRPGEGLEWIGYINPSSGYTKYNQKFKDKATLTADKSSSTAYMELSSLTSEDSAVYYCARWQDYDVYFDYWGEGTTLTVSS VL: QIVLSQSPAILSASPGEKVTMTCRASSSVSYIWWFQQKPGSSPKPWIYATSNLASGVPVRFSGSGSGTSYSLTISRVEAEDAATYYCQQWTSNPPTFGGGTKLEIKR
4 | 15 | 90 | CD20/CD3 BsMab with common VL (SEQ ID NO: 3) N93S (bispecific antibody, V domains shown) VH 1: QVQLQQPGAELVKPGASVKMSCKASGYTFTSYNMHWVKQTPGRGLEWIGAIYPGNGDTSYNQKFKGKATLTADKSSSTAYMQLSSLRSEDSAVYYCARSTYYGGDWYFNVWGAGTTVTVSA VH 2: EVQLQESGAELARPGASVKMSCKASGYTFTSYTMHWVKQRPGEGLEWIGYINPSSGYTKYNQKFKDKATLTADKSSSTAYMELSSLTSEDSAVYYCARWQDYDVYFDYWGEGTTLTVSS VL: QIVLSQSPAILSASPGEKVTMTCRASSSVSYIHWFQQKPGSSPKPWIYATSNLASGVPVRFSGSGSGTSYSLTISRVEAEDAATYYCQQWTSSPPTFGGGTKLEIKR

The next lines start with the binder.

Row | Binder | Function % 0.025 ug/ml (T cell activation, CD69 on Jurkat cells with Raji cells, against the unmutated baseline) [%] | Function % 2 ug/ml (T cell activation, CD69 on Jurkat cells with Raji cells, against the unmutated baseline) [%]
5 | CD20/CD3 BsMab with common VL (SEQ ID NO: 3) H33L (bispecific antibody, V domains shown) VH 1: QVQLQQPGAELVKPGASVKMSCKASGYTFTSYNMHWVKQTPGRGLEWIGAIYPGNGDTSYNQKFKGKATLTADKSSSTAYMQLSSLRSEDSAVYYCARSTYYGGDWYFNVWGAGTTVTVSA VH 2: EVQLQESGAELARPGASVKMSCKASGYTFTSYTMHWVKQRPGEGLEWIGYINPSSGYTKYNQKFKDKATLTADKSSSTAYMELSSLTSEDSAVYYCARWQDYDVYFDYWGEGTTLTVSS VL: QIVLSQSPAILSASPGEKVTMTCRASSSVSYILWFQQKPGSSPKPWIYATSNLASGVPVRFSGSGSGTSYSLTISRVEAEDAATYYCQQWTSNPPTFGGGTKLEIKR | 16 | 93
6 | CD20/CD3 BsMab with common VL (SEQ ID NO: 3) H33E (bispecific antibody, V domains shown) VH 1: QVQLQQPGAELVKPGASVKMSCKASGYTFTSYNMHWVKQTPGRGLEWIGAIYPGNGDTSYNQKFKGKATLTADKSSSTAYMQLSSLRSEDSAVYYCARSTYYGGDWYFNVWGAGTTVTVSA VH 2: EVQLQESGAELARPGASVKMSCKASGYTFTSYTMHWVKQRPGEGLEWIGYINPSSGYTKYNQKFKDKATLTADKSSSTAYMELSSLTSEDSAVYYCARWQDYDVYFDYWGEGTTLTVSS VL: QIVLSQSPAILSASPGEKVTMTCRASSSVSYIEWFQQKPGSSPKPWIYATSNLASGVPVRFSGSGSGTSYSLTISRVEAEDAATYYCQQWTSNPPTFGGGTKLEIKR | 89 | 104
7 | CD20/CD3 BsMab with common VL (SEQ ID NO: 3) H33V (bispecific antibody, V domains shown) VH 1: QVQLQQPGAELVKPGASVKMSCKASGYTFTSYNMHWVKQTPGRGLEWIGAIYPGNGDTSYNQKFKGKATLTADKSSSTAYMQLSSLRSEDSAVYYCARSTYYGGDWYFNVWGAGTTVTVSA VH 2: EVQLQESGAELARPGASVKMSCKASGYTFTSYTMHWVKQRPGEGLEWIGYINPSSGYTKYNQKFKDKATLTADKSSSTAYMELSSLTSEDSAVYYCARWQDYDVYFDYWGEGTTLTVSS VL: QIVLSQSPAILSASPGEKVTMTCRASSSVSYIVWFQQKPGSSPKPWIYATSNLASGVPVRFSGSGSGTSYSLTISRVEAEDAATYYCQQWTSNPPTFGGGTKLEIKR | 83 | 104
8 | CD20/CD3 BsMab with common VL (SEQ ID NO: 3) H33G (bispecific antibody, V domains shown) VH 1: QVQLQQPGAELVKPGASVKMSCKASGYTFTSYNMHWVKQTPGRGLEWIGAIYPGNGDTSYNQKFKGKATLTADKSSSTAYMQLSSLRSEDSAVYYCARSTYYGGDWYFNVWGAGTTVTVSA VH 2: EVQLQESGAELARPGASVKMSCKASGYTFTSYTMHWVKQRPGEGLEWIGYINPSSGYTKYNQKFKDKATLTADKSSSTAYMELSSLTSEDSAVYYCARWQDYDVYFDYWGEGTTLTVSS VL: QIVLSQSPAILSASPGEKVTMTCRASSSVSYIGWFQQKPGSSPKPWIYATSNLASGVPVRFSGSGSGTSYSLTISRVEAEDAATYYCQQWTSNPPTFGGGTKLEIKR | 100 | 101
9 | CD20/CD3 BsMab with common VL (SEQ ID NO: 3) H33D (bispecific antibody, V domains shown) VH 1: QVQLQQPGAELVKPGASVKMSCKASGYTFTSYNMHWVKQTPGRGLEWIGAIYPGNGDTSYNQKFKGKATLTADKSSSTAYMQLSSLRSEDSAVYYCARSTYYGGDWYFNVWGAGTTVTVSA VH 2: EVQLQESGAELARPGASVKMSCKASGYTFTSYTMHWVKQRPGEGLEWIGYINPSSGYTKYNQKFKDKATLTADKSSSTAYMELSSLTSEDSAVYYCARWQDYDVYFDYWGEGTTLTVSS VL: QIVLSQSPAILSASPGEKVTMTCRASSSVSYIDWFQQKPGSSPKPWIYATSNLASGVPVRFSGSGSGTSYSLTISRVEAEDAATYYCQQWTSNPPTFGGGTKLEIKR | 109 | 96
10 | CD20/CD3 BsMab with common VL (SEQ ID NO: 3) H33T (bispecific antibody, V domains shown) VH 1: QVQLQQPGAELVKPGASVKMSCKASGYTFTSYNMHWVKQTPGRGLEWIGAIYPGNGDTSYNQKFKGKATLTADKSSSTAYMQLSSLRSEDSAVYYCARSTYYGGDWYFNVWGAGTTVTVSA VH 2: EVQLQESGAELARPGASVKMSCKASGYTFTSYTMHWVKQRPGEGLEWIGYINPSSGYTKYNQKFKDKATLTADKSSSTAYMELSSLTSEDSAVYYCARWQDYDVYFDYWGEGTTLTVSS VL: QIVLSQSPAILSASPGEKVTMTCRASSSVSYITWFQQKPGSSPKPWIYATSNLASGVPVRFSGSGSGTSYSLTISRVEAEDAATYYCQQWTSNPPTFGGGTKLEIKR | 99 | 106
11 | CD20/CD3 BsMab with common VL (SEQ ID NO: 3) H33A (bispecific antibody, V domains shown) VH 1: QVQLQQPGAELVKPGASVKMSCKASGYTFTSYNMHWVKQTPGRGLEWIGAIYPGNGDTSYNQKFKGKATLTADKSSSTAYMQLSSLRSEDSAVYYCARSTYYGGDWYFNVWGAGTTVTVSA VH 2: EVQLQESGAELARPGASVKMSCKASGYTFTSYTMHWVKQRPGEGLEWIGYINPSSGYTKYNQKFKDKATLTADKSSSTAYMELSSLTSEDSAVYYCARWQDYDVYFDYWGEGTTLTVSS VL: QIVLSQSPAILSASPGEKVTMTCRASSSVSYIAWFQQKPGSSPKPWIYATSNLASGVPVRFSGSGSGTSYSLTISRVEAEDAATYYCQQWTSNPPTFGGGTKLEIKR | 65 | 104
12 | CD20/CD3 BsMab with common VL (SEQ ID NO: 3) H33R (bispecific antibody, V domains shown) VH 1: QVQLQQPGAELVKPGASVKMSCKASGYTFTSYNMHWVKQTPGRGLEWIGAIYPGNGDTSYNQKFKGKATLTADKSSSTAYMQLSSLRSEDSAVYYCARSTYYGGDWYFNVWGAGTTVTVSA VH 2: EVQLQESGAELARPGASVKMSCKASGYTFTSYTMHWVKQRPGEGLEWIGYINPSSGYTKYNQKFKDKATLTADKSSSTAYMELSSLTSEDSAVYYCARWQDYDVYFDYWGEGTTLTVSS VL: QIVLSQSPAILSASPGEKVTMTCRASSSVSYIRWFQQKPGSSPKPWIYATSNLASGVPVRFSGSGSGTSYSLTISRVEAEDAATYYCQQWTSNPPTFGGGTKLEIKR | 9 | 54
13 | CD20/CD3 BsMab with common VL (SEQ ID NO: 3) H33P (bispecific antibody, V domains shown) VH 1: QVQLQQPGAELVKPGASVKMSCKASGYTFTSYNMHWVKQTPGRGLEWIGAIYPGNGDTSYNQKFKGKATLTADKSSSTAYMQLSSLRSEDSAVYYCARSTYYGGDWYFNVWGAGTTVTVSA VH 2: EVQLQESGAELARPGASVKMSCKASGYTFTSYTMHWVKQRPGEGLEWIGYINPSSGYTKYNQKFKDKATLTADKSSSTAYMELSSLTSEDSAVYYCARWQDYDVYFDYWGEGTTLTVSS VL: QIVLSQSPAILSASPGEKVTMTCRASSSVSYIPWFQQKPGSSPKPWIYATSNLASGVPVRFSGSGSGTSYSLTISRVEAEDAATYYCQQWTSNPPTFGGGTKLEIKR | 34 | 94

Reference: patent US20220169728A1 (AB THERAPEUTICS, published 2022)
